Assay results: patent US20230212587A1, “Mutant Hydroxyphenylpyruvate Dioxygenase Polypeptide, Encoding Gene Thereof and Use Therefor” (Beijing Dabeinong Biotechnology Co., Ltd., priority 2019, published 2023)
Substitutions are numbered along the chain they refer to. Numbers in names are those of the source.

B1: AsHPPDm-A110: Avena sativa HPPD with deletion of alanine at position 110, SEQ ID NO: 414 (protein)
chain: MPPTPATATGAAAAAVTPEHAARSFPRVVRVNPRSDRFPVLSFHHVELWCADAASAAGRFSFALGAPLAARSDLSTGNSAHASLLLRSGALAFLFTAPYAPPPQEAATAATASIPSFSADAARTFAAAHGLAVRSVGVRVADAAEAFRVSVAGGARPAFAPADLGHGFGLAEVELYGDVVLRFVSYPDETDLPFLPGFERVSSPGAVDYGLTRFDHVVGNVPEMAPVIDYMKGFLGFHEFAEFTAEDVGTTESGLNSVVLANNSEAVLLPLNEPVHGTKRRSQIQTYLEYHGGPGVQHIALASNDVLRTLREMRARTPMGGFEFMAPPQAKYYEGVRRIAGDVLSEEQIKECQELGVLVDRDDQGVLLQIFTKPVGDRPTFFLEMIQRIGCMEKDEVGQEYQKGGCGGFGKGNFSELFKSIEDYEKSLEVKQSVVAQKS
modifications: AsHPPDm-A110 Amino Acid Sequence
B2: PfHPPDm-G413W: Pseudomonas fluorescens HPPD with G336W (position 413 of SEQ ID NO: 1), SEQ ID NO: 418 (protein)
chain: MADLYENPMGLMGFEFIEFASPTPGTLEPIFEIMGFTKVATHRSKNVHLYRQGEINLILNNEPNSIASYFAAEHGPSVCGMAFRVKDSQKAYNRALELGAQPIHIDTGPMELNLPAIKGIGGAPLYLIDRFGEGSSIYDIDFVYLEGVERNPVGAGLKVIDHLTHNVYRGRMVYWANFYEKLFNFREARYFDIKGEYTGLTSKAMSAPDGMIRIPLNEESSKGAGQIEEFLMQFNGEGIQHVAFLTDDLVKTWDALKKIGMRFMTAPPDTYYEMLEGRLPDHGEPVDQLQARGILLDGSSVEGDKRLLLQIFSETLMGPVFFEFIQRKGDDGFGEWNFKALFESIERDQVRRGVLTAD
modifications: PfHPPDm-G413W Amino Acid Sequence
B3: F372G (protein, listed as Avena sativa)
chain: MPPTPATATGAAAAAVTPEHAARSFPRVVRVNPRSDRFPVLSFHHVELWCADAASAAGRFSFALGAPLAARSDLSTGNSAHASLLLRSGALAFLFTAPYAPPPQEAATAAATASIPSFSADAARTFAAAHGLAVRSVGVRVADAAEAFRVSVAGGARPAFAPADLGHGFGLAEVELYGDVVLRFVSYPDETDLPFLPGFERVSSPGAVDYGLTRFDHVVGNVPEMAPVIDYMKGFLGFHEFAEFTAEDVGTTESGLNSVVLANNSEAVLLPLNEPVHGTKRRSQIQTYLEYHGGPGVQHIALASNDVLRTLREMRARTPMGGFEFMAPPQAKYYEGVRRIAGDVLSEEQIKECQELGVLVDRDDQGVLLQIGTKPVGDRPTFFLEMIQRIGCMEKDEVGQEYQKGGCGGFGKGNFSELFKSIEDYEKSLEVKQSVVAQKS
modifications: AsHPPD Amido Acid Sequence
B4: F372V (protein, listed as Avena sativa)
chain: B3 chain with G372V
modifications: AsHPPD Amido Acid Sequence
B5: F372I (protein, listed as Avena sativa)
chain: B3 chain with G372I
modifications: AsHPPD Amido Acid Sequence
B6: F372N (protein, listed as Avena sativa)
chain: B3 chain with G372N
modifications: AsHPPD Amido Acid Sequence
B7: F372Q (protein, listed as Avena sativa)
chain: B3 chain with G372Q
modifications: AsHPPD Amido Acid Sequence
B8: F372D (protein, listed as Avena sativa)
chain: B3 chain with G372D
modifications: AsHPPD Amido Acid Sequence

system: Arabidopsis thaliana T1 plants; experiment: Topramezone tolerance of transgenic Arabidopsis thaliana T1 plants (pesticide damage grade by bleached leaf area, score, resistance evaluation); assay type: in vivo; parameters: score: scale not given here; settings: Arabidopsis thaliana T1 plants sprayed with topramezone
Source text: The Arabidopsisthaliana T1 plants into which the AsHPPDm-F372A-02 nucleotide sequence was introduced, Arabidopsis thaliana T1 plants into which the AsHPPD-02 nucleotide sequence was introduced and wild-type Arabidopsisthaliana plants (18 days after sowing) were sprayed with topramezone at four different concentrations, i.e., 25 g ai/ha (one-fold field concentration, 1×), 50 g ai/ha (two-fold field concentration, 2×), 100 g ai/ha (four-fold field concentration, 4×) and 0 g ai/ha (water, 0×) to determine the tolerance of Arabidopsisthaliana to the herbicide. The degree of damage caused by the herbicide was measured for each plant according to the proportion of bleached leaf area (the proportion of bleached leaf area=bleached leaf area/total leaf area×100%) 7 days after spraying (7 DAT): the case where there is basically no bleached phenotype is defined as grade 0, the case where the proportion of bleached leaf area is less than 50% is defined as grade 1,the case where the proportion of bleached leaf area is more than 50% is defined as grade 2, and the case where the proportion of bleached leaf area is 100% grade is defined as grade 3.
(§1) According to the method as described above in point 6 of Example 1, the aforementioned Arabidopsisthaliana T1 plants and wild-type Arabidopsisthaliana plants (18 days after sowing) were sprayed with topramezone at three different concentrations respectively, i.e., 25 g ai/ha (one-fold field concentration, 1×), 100 g ai/ha (four-fold field concentration, 4×) and 0 g ai/ha(water, 0×) to detect the tolerance of Arabidopsisthaliana to the herbicide.
as §1, with “1x),” for “1×),”, “4x)” for “4×)”, “ai/ha (water, 0x)” for “ai/ha(water, 0×)”
According to the method as described above in point 6 of Example 1, the above-mentioned Arabidopsisthaliana T1 plants, Arabidopsisthaliana T1 plants into which the AsHPPD-02 nucleotide sequence was introduced, Arabidopsisthaliana T1 plants into which the PfHPPD-02 nucleotide sequence was introduced, and wild-type Arabidopsisthaliana plants (18 days after sowing) were sprayed with topramezone at four different concentrations respectively, that is, 25 g ai/ha (one-fold field concentration, 1x), 50 g ai/ha (two-fold field concentration, 2x), 100 g ai/ha (four-fold field concentration, 4x) and 0 g ai/ha (water, Ox) to detect the herbicide tolerance of Arabidopsisthaliana.
According to the method as described in point 6 of Example 1, the above-mentioned Arabidopsisthaliana T1 plants and wild-type Arabidopsisthaliana plants (18 days after sowing) were sprayed with topramezone at two different concentrations respectively, that is, 25 g ai/ha (one-fold field concentration, 1x) and 100 g ai/ha (four-fold field concentration, 4x) to detect the herbicide tolerance of Arabidopsisthaliana,. […]

Row | Molecule | tolerance to topramezone, in words
1 | B1 | a certain tolerance to low concentration of topramezone
2 | B2 | a certain tolerance to low concentration of topramezone

same assay, conditions: saturation mutation of HPPD from Avena sativa source (label F372X = AsHPPDm-F372X); topramezone 25, 50, 100 g ai/ha

Row | Molecule | tolerance to topramezone, in words
3 | B3 | better tolerance
4 | B4 | better tolerance
5 | B5 | better tolerance
6 | B6 | better tolerance
7 | B7 | better tolerance
8 | B8 | better tolerance

same assay, conditions: topramezone 25 g ai/ha (1x); HPPD from Avena sativa source

Row | Molecule | Resistance Grade | score
9 | B3 | Highly resistant | 0
10 | B4 | Highly resistant | 0
11 | B6 | Highly resistant | 7
12 | B7 | Highly resistant | 0
13 | B8 | Highly resistant | 7

same assay, conditions: topramezone 25 g ai/ha (1x); number of plants; HPPD from Avena sativa source

Row | Molecule | Grade 0 | Grade 1 | Grade 2 | Grade 3
14 | B3 | 20 | 0 | 0 | 0
15 | B4 | 20 | 0 | 0 | 0
16 | B6 | 18 | 0 | 2 | 0
17 | B7 | 20 | 0 | 0 | 0
18 | B8 | 16 | 4 | 0 | 0

same assay, conditions: topramezone 25 g ai/ha; mutation combination, Table 8

Row | Molecule | Grade 0 (number of plants) | Grade 1 (number of plants) | Grade 2 (number of plants) | Grade 3 (number of plants) | Resistance Grade | score
19 | B1 | 4 | 16 | 0 | 0 | Moderately resistant | 27
20 | B2 | 2 | 18 | 0 | 0 | Moderately resistant | 30

same assay, conditions: topramezone 50 g ai/ha (2x); HPPD from Avena sativa source

Row | Molecule | Resistance Grade | score
21 | B3 | Highly resistant | 0
22 | B4 | Highly resistant | 0
23 | B6 | Highly resistant | 0
24 | B7 | Highly resistant | 0
25 | B8 | Highly resistant | 0

same assay, conditions: topramezone 50 g ai/ha (2x); number of plants; HPPD from Avena sativa source

Row | Molecule | Grade 0 | Grade 1 | Grade 2 | Grade 3
26 | B3 | 20 | 0 | 0 | 0
27 | B4 | 20 | 0 | 0 | 0
28 | B6 | 20 | 0 | 0 | 0
29 | B7 | 20 | 0 | 0 | 0
30 | B8 | 20 | 0 | 0 | 0

same assay, conditions: topramezone 100 g ai/ha (4x); HPPD from Avena sativa source

Row | Molecule | Resistance Grade | score
31 | B3 | Highly resistant | 0
32 | B4 | Highly resistant | 0
33 | B6 | Highly resistant | 0
34 | B7 | Highly resistant | 0
35 | B8 | Highly resistant | 0

same assay, conditions: topramezone 100 g ai/ha (4x); number of plants; HPPD from Avena sativa source

Row | Molecule | Grade 0 | Grade 1 | Grade 2 | Grade 3
36 | B3 | 20 | 0 | 0 | 0
37 | B4 | 20 | 0 | 0 | 0
38 | B6 | 20 | 0 | 0 | 0
39 | B7 | 20 | 0 | 0 | 0
40 | B8 | 20 | 0 | 0 | 0

same assay, conditions: topramezone 100 g ai/ha; mutation combination, Table 8

Row | Molecule | Grade 0 (number of plants) | Grade 1 (number of plants) | Grade 2 (number of plants) | Grade 3 (number of plants) | Resistance Grade | score
41 | B1 | 0 | 0 | 14 | 6 | Non-resistant | 77
42 | B2 | 0 | 0 | 10 | 10 | Non-resistant | 83
